Earlier results in patent US20080160019A1, “SEQUENTIAL COMBINATION THERAPY” (DYAX CORP., priority 2006, published 2008).

Biological target: Tie1 (Homo sapiens, UniProt P35590)
Sequence (P35590 22-1138): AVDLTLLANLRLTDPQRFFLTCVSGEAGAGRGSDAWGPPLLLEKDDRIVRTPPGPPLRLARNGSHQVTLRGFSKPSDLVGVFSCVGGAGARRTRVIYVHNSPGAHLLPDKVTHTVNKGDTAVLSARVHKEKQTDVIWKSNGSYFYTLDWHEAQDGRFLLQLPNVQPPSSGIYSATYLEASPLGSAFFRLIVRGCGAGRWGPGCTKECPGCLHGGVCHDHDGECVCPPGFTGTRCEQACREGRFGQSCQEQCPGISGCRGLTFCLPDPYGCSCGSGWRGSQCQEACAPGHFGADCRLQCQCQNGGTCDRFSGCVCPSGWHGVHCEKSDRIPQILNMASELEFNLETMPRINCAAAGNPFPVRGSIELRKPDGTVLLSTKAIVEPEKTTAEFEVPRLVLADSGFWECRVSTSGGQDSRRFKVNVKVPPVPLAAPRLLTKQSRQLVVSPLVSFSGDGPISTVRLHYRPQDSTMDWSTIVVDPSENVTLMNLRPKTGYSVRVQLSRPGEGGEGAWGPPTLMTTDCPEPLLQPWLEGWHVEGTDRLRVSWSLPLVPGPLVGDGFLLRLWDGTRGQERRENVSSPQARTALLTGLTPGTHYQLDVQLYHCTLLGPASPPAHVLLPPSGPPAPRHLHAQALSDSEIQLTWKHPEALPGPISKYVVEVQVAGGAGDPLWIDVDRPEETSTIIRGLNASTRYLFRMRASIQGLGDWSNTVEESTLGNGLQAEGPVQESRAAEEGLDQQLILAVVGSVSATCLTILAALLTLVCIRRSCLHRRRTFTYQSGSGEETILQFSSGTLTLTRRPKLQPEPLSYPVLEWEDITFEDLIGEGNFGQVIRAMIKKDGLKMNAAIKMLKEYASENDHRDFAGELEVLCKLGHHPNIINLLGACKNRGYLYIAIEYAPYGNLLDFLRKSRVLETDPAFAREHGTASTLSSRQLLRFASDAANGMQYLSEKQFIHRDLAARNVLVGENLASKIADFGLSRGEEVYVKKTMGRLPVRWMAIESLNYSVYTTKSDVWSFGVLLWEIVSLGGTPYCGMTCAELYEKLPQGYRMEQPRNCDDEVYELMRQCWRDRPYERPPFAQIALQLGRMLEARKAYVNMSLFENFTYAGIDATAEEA

B1: M0044-B08: Tie1 ectodomain-binding antibody, variable domains SEQ ID NO:2 and 4 (antibody, listed as Homo sapiens, V domains shown)
VL: QDIQMTQSPSFLSASVGDRVTISCRASQYISIYLNWYQQRPGEAPKLLINAASSLQSGDPSRFSGSGSGTDFTLTINSLQPDDFATYYCQQYKSYPLTFGEGTKVEIK
VH: EVQLLESGGGLVQPGGSLRLSCAASGFTFSAYGMGWVRQAPGKGLEWVSVISPSGGQTSYADSVKGRFTISRDNSKNTLYLQMNSLRAEDTALYYCAGGDRYGPLHYWGQGTLVTVSS
induce: Tie1 tyrosine phosphorylation | Tie complex formation | down modulation of Tie1 from the cell surface
